Source: article PMC5522078, “Discovery and characterization of small molecules targeting the DNA-binding ETS domain of ERG in prostate cancer” (Oncotarget, 2017)

Target: T1, ERG-ETS domain (UniProt P11308 307-400)
T1 sequence: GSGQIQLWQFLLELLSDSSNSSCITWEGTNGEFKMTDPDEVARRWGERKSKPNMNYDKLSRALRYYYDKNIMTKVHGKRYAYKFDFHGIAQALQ
Assay: EMSA; no compound; 1 nM DNA; EMSA: protein stored in 20 mM sodium phosphate, 200 mM NaCl, 2 mM DTT, 0.1 mM EDTA, pH 6.5; reaction with 3% glycerol, 0.2 mg/mL BSA, 1 nM dsDNA, room temperature 1 h; 10% native gel run at 10 C
Settings: protein: recombinant; tags: His6 removed by thrombin; label: Alexa-488; blunt

B1: ETS consensus GGAA probe (dsDNA)
DNA 1: CGGCCAAGCCGGAAGTGAGTG
DNA 2: CACTCACTTCCGGCTTGGCCG
Kd: ~1 nM
